# B1: X1 (54 nt) (ssDNA)
# DNA: TACGTTAACAAAAAGTCAGATATGGACCTTGCTGCTAAAGGTCTAGGAGCTAAA
# Target: RecA (Escherichia coli BJ5183, UniProt P0A7G6 1-353)
# Experiment: EMSA; no nucleotide cofactor; 1 mM Mg2+ (10 mM in Fig. S1B); about 5 nt per RecA; 25 mM Tris pH 7.6, 1 mM MgCl2 (10 mM in supplementary assays), 1 mM DTT, 37 C, 10 min, 12 pmol X1 in 10 ul; 2% native agarose gel
# Conditions: protein: recombinant; tags: His tag (pET28a, Ni purification); single strand
# Sequence of RecA (P0A7G6 whole entry): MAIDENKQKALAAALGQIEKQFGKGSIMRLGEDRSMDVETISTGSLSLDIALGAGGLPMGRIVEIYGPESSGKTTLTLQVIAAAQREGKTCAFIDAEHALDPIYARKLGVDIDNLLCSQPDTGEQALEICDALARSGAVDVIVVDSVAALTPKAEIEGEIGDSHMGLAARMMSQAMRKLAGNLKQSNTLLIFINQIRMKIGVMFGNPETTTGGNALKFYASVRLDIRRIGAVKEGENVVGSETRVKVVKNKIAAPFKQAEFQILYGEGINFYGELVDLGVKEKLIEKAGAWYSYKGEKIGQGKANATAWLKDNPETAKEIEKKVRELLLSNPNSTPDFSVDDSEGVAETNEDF
binder,measurement,value
B1,binding result,binds

# — publication PMC5043356, “A general solution for opening double-stranded DNA for isothermal amplification”
